# Results taken from patent US5726291, “Amylase inhibitors” (Nisshin Flour Milling Co., Ltd., dated 1998).
# T1: human pancreatic α-amylase (human, UniProt P04746)
# T1 sequence: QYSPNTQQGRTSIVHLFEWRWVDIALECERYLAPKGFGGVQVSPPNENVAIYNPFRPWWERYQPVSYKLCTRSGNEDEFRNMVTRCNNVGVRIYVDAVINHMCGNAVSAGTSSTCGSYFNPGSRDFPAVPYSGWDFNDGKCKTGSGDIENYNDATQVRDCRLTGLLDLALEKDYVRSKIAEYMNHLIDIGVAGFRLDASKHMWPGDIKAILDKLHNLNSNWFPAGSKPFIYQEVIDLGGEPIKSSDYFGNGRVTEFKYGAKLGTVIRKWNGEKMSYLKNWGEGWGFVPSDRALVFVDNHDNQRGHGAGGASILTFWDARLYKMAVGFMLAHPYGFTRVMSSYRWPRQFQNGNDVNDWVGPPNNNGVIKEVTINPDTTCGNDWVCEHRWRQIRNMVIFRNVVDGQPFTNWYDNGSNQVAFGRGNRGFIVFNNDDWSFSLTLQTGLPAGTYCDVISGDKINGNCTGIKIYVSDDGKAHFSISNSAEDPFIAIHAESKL
# Biological target: T1, human pancreatic α-amylase
# Test: cell-based or functional assay
row,Binder,Amylase inhibitory activity (U/mg)
1,Protein 0.19 AI (other) SGPWMCYPGQAFQVPALPACRPLLRLQCNGSQVPEAVLRDCCQQLAHISEWCRCGALYSMLDSMYKEHGAQEGQAGTGAFPRCRREVVKLTAASITAVCRLPIVVDASGDGAYVCKDVAAYPDA,20300
2,Protein 0.26 AI (other) SGPWMCYPGYAFKVPALPGCRPVLKLQCNGSQVPEAVLRDCCQQLADISEWCRCGALYSMLDSMYKEHGVQEGQAGTGAFPSCRREVVKLTAASITAVCKLPIVIDASGDGAYVCKGVAAYPDA,26100
3,Protein 0.28 AI (other) SGPWSWCNPATGYKVSALTGCRAMVKLQCVGSQVPEAVLRDCCQQLADINNEWCRCGDLSSMLRAVYQELGVREGKEVLPGCRKEVMKLTAASVPEVCKVPIPNPSGDRAGVCYGDWCAYPDV,840

# More lines, now with the values ahead:
row,Amylase inhibitory activity (U/mg),Binder
1,20500,Protein (A) (other) SGPWMCYPGYAFKVPALPGCRPVLKLQCNGSQVPEAVLRDCCQQLADISEWCRCGALYSMLDSMYKEHGVQEGQAGTGAFPSCRREVVKLTAASITAVCKLPIVIDASGDGAYVCKGVAAYP
2,3940,Protein 0.53 AI (other) SGPWMCYPGQAFQVPALPGCRPLLKLQCNGSQVPEAVLRDCCQQLADISEWPRCGALYSMLDSMYKEHGVSEGQAGTGAFPSCRREVVKLTAASITAVCRLPIVVDASGDGAYVCKDVAAYPDA
